expression_or_secretion data for two substances are collected here from publication PMC3358304.

A short description of the series: immunoblot of total Akt, MCF-7. The conditions noted are these: glycan lost; control: wild type. A general note: A western blot detects proteins with antibodies after separation by electrophoresis.

On to Akt (AKT1): T312Y, for which the expression_or_secretion entry is listed as “no change”.

As to Akt (AKT1): T305Y, the expression_or_secretion result is listed as “no change”.
